According to the DeepSol protein solubility set:

Test: soluble on expression in E. coli; label from the status in PepcDB or PDB records

| Sequence | soluble on expression in E. coli |
| --- | --- |
| MKIHPLSDVQAKQIGQGTSIWQYVVVLPGAVIGSDCNICSHCFIENAVVIGDRVTIKCGVQIWDGLRVEDDVFIGPNVTFTNDLFPRSKQHPKEFAKTVIQKGASIGANATILAGSTIGRNAMVGAGAVVTKSVPPNAIVVGNPARITGYVSTIPAQQKHSEIEVGENIGTVGQSAIPGVQFVRLPIIPDLRGSLSFAEFGQYLPFIPKRYFLVFDVQSREVRGEHAHKELHQFLVCVKGACSVMVDDGNCREEYILNTPGAALHIPPLVWGVQYKYSPDAVLMVLASDVYKPEDYIRDYDQFIALVKKLEHHHHHH | not soluble |
| MKIHSYIFSLLACLVIALPGYSQVDRNETLIRSALHGLEYEIKAGFSIGGTAPLPLPVEIRSIDGYNPTLAISIGGEVTKWFAVQNKLGVIVGLRLENKAMTTEATVKNYNMEILGQGGERISGVWTGGVKTKVHTSGLTIPLMATYKLSNRWNIKAGPYFSYLLSREFSGHVYEGYLREGDPVGPKVEFTDGKIATYDFSDDLRHFQWGLQIGAGWRAFKHLNIYADLTWGLNDIFRNDFQTITFAMYPIYLNIGFGYAF | not soluble |
| MKIIFLLFGFIFHPNNAQFDKSGVQQTLDAHNEFRSSIAKGTYVTKGLLHAPATNIMKMKWNVTIATAAQNHANKCPKGHDGPLEGVSGECMWSGHINASKGVNHLGAVAAKAWSSEYTKKGWETDVMSDEFFNSGVGHAIIMTWYSQVNVGCGVKLCQKEGDYQLAIVVCKYWGEGQGNGKIMYESGPTCSACPPNTTCDQATGLCDSKIPDIPEPIYKYDELVNSKPAYTVVMGFFLMIIVQLI | not soluble |
| MKIIKRNGSEAVFDISKIMMAVSRANEVVQANQKLSKAQINAIAAQVEEVCSTRPHAMNVEEIQDLVENQIMEQQAFEVARKYITYRYIRTLKRSSN | not soluble |
| MKIKQALFTAGYSSFYFDDQQAIKNGAGHDGFIYTGDPVTPGFTSVRQAGECVSVQLILENGAVAVGDCAAVQYSGAGGRDPLFLAEHFIPFLNDHIKPLLEGRDVDAFLPNARFFDKLRIDGNLLHTAVRYGLSQALLDATALASGRLKTEVVCDEWQLPCVPEAIPLFGQSGDDRYIAVDKMILKGVDVLPHALINNVEEKLGFKGEKLREYVRWLSDRILSLRSSPRYHPTLHIDVYGTIGLIFDMDPVRCAEYIASLEKEAQGLPLYIEGPVDAGNKPDQIRMLTAITKELTRLGSGVKIVADEWCNTYQDIVDFTDAGSCHMVQIKTPDLGGIHNIVDAVLYCNKHGMEAYQGGTCNETEISARTCVHVALAARPMRMLIKPGMGFDEGLNIVFNEMNRTIALLQTKD | soluble |
| MKIKSNLKLRRIGNRHMIVEVSDSCVNLTNVYSLNGTAARLWEMVCNGEGRTAGELAEGLCKTYDVEYGRALRDVERQIEEWEKMGLLSRRGTGD | not soluble |
| MKILHTSDWHIGKTLYGHKRYDEFEAFFSWLVETIEQEQVDVLLIAGDIFDTSTPGNRSQQLYYRFLHRVAASACRHVVIIAGNHDSPSFLSAPRELLRALDVHVTGSLSGNPADEILVLHDPKGDAELIVCAVPHLRDRDIRTAEAGESMEDKSRKLVEGIRDHYAEVINLARLQRTALSSSIPIIAMGHLFVAGGQTVEGDGVRELYVGSLAHVPAGIFPPDIDYLALGHLHVPQRVNGSSVMRYSGSPLPIGFGEADQEKSVCLIEFNRQ | not soluble |
| MKILVALAVFFLVSTQLFAEEIGANDDLNYWSDWYDSDQIKEELPEPFEHLLQRIARRPKPQQFFGLMGKRDADSSIEKQVALLKALYGHGQISHKRHKTDSFVGLMGKRALNSVAYERSAMQNYERRRLEHHHHHH | not soluble |
| MKIMCKQEYYNQVVQYAESIKDTSLQNCMERLEAWEKNPDRPCEIELYHDWAPYSFGFTQRYPDGSRGIVGGLLYHGSPDESFAVQLTPFKGWQIHT | not soluble |
| MKINLDRTSSGFCIGVQGTIHVAEEKLAQSGELYCLGDVVHNEVEVKRLEALGMETIDIPAFEELRNAEVLIRAHGEPPSTYETARKNNLAITDTTCPVVAKLQRTAKMLHQLGYQVVIYGKKVHPEVIGINGQCDDEGVVIKHPDLSDPEEIAPLDLSRKTALISQTTMDVPGFYELKRNLEKLFAEHGHRNPGTQSGEWMAVRDIDITAEKTGALAMPKLVFKDTICRQVSSRNGKLRDFALANDCIVFAAGRKSSNGQVLYSICKDANPHSYFIEDVDEIRPEWFVGENGKPVESVGICGATSTPMWLLEKVANYIDKTFGDGSSNPNALEHHHHHH | not soluble |
| MKIRSLIRVRLTRFFPSDRYIKNRCSGADGVLIDFEKKEDKVDDYKLSSFHRLKNSKFSLPKLLVDPVTTNSNQWIPRLIEEKSVDGVAMRNFTDDVISLDNEIFTMIWDTREQRITHSIISYHRINDCDIMWNSSIRTAVQDSLEHDIQPLAARTLRFRDYETAVQEFEILRQIGFTGAVIRNPNLIEMTNEIFEK | not soluble |
| MKISIRHRYIAKIPALEVTTEEQKNEALPLIVYYHGWQSAKELSLTQARKLAHEGFRVILPDAMNHGERKTEPISTIPSITFWSSIQYNLIEFPVIIHHFHKLGLIKENWIGVGGVSMGGITTSALMTQHPEIQAAACLMGTPYPARYIQRVIQRAKEFAIFVPKDLPLLLSWVHQYDLSQTPERLQERPMLFWHGTEDEKIPYEDMADFEQLVSGKTYARNTQFITEIGERHLVKGETMDLVVDFFKEASKTLEK | not soluble |
| MKITGVKAVFYSATGNTEEVVTAIAEKIAEKLGVSMEICNFTLPGGRTEVQTYAPSELVVFGTPVYAGRVPNKMLPVVQNNFKGEGALAVPVVTFGNRNFDNGLIELRNELENNGFHTIAGAGFAVSHVFSDKIAPGRPDEADREIMMRFAEAVAEKVEKMEEIPAPIEVRGEDPVGPYYTPLGTDGKPAVFLKAKPK | not soluble |
| MKIVIAPDSFKESLSAEKCCQAIKAGFSTLFPDANYICLPIADGGEGTVDAMVAATGGNIVTLEVCGPMGEKVNAFYGLTGDGKTAVIEMAAASGLMLVAPEKRNPLLASSFGTGELIRHALDNDIRHIILGIGGSATVDGGMGMAQALGVRFLDADGQALAANGGNLARVASIEMDECDPRLANCHIEVACDVDNPLVGARGAAAVFGPQKGATPEMVEELEQGLQNYARVLQQQTEINVCQMAGGGAAGGMGIAAAVFLNADIKPGIEIVLNAVNLAQAVQGAALVITGEGRIDSQTAGGKAPLGVASVAKQFNVPVIGIAGVLGDGVEVVHQYGIDAVFSILPRLAPLAEVLASGETNLFNSARNIACAIKIGQGIKN | soluble |
| MKIVLISGLSGSGKSVALRQMEDSGYFCVDNLPLEMLPALVSYHIERADETELAVSVDVRSGIDIGQAREQIASLRRLGHRVEVLFVEAEESVLVRRFSETRRGHPLSNQDMTLLESLKKEREWLFPLKEIAYCIDTSKMNAQQLRHAVRQWLKVERTGLLVILESFGFKYGVPNNADFMFDMRSLPNPYYDPELRPYTGMDKPVWDYLDGQPLVQEMVDDIERFVTHWLPRLEDESRSYVTVAIGCTGGQHRSVYIVEKLARRLKGRYELLIRHRQAQNLSDR | not soluble |
| MKIYVSRSRLKSNRRRLINETDVERLFSRNGFQIIHPQELTIKEQINLFRHAQVIAGPLGSAMYNCVFQTKPTKKLLLTYEKFIKMSDLLINTSTNGLLYYFAGTEHKQNKSPSNTEWLEHHHHHH | soluble |
| MKKAIQFGAGNIGRGFIGGLLVKSGYHVVFADVNEYILNSINKDKKYTIHIRDVECIDEVIDNISAVSSIKEEIIDEIVQAEIITTAVGPLVLTKIASTIAKGIKARKEKGLTSNLNIIACENAIYASSSLKEEVLKYLNKEEVEYLEMYVGFPNCSVDRIVPPGKNENPLDVTVENFYEWNVEKQGFKGEIPTIVGMNLADNLMAYIERKLFTLNTGHAITAYIGYLKGYKTIEESIKDKFICDIVKSAMVESGEGLIKKYNFDSEVHYKYIDKILNRFKNPYLNDDVLRVGREPLRKLSDKDRLIKPLMTAKSYGLSVDNLILGIGAALHYNNSEDTQSVELQELIKSIGVKKAVAKIANISNDEELLNNIEKSYIFMKNL | not soluble |
| MKKALTTRHPPIDVYCICREVTEVMEKLHAADAETIPLASNIQMVNMVNNYVIMSYGLLHDDYEYGAITESCRKDVLLLLRELFPRKIYLWEN | soluble |
